Details in all cases: chain copies: 4 (inferred)
The target in data set [1] is T1, GluA2Qflip AMPA receptor subunit (Rattus norvegicus, UniProt P19491-2 P19491-2:22-883). As to the kind of experiment: competition; open-channel conformation; homologous competition with radiolabeled AF42.
Data set [2] addresses T1, GluA2Qflip AMPA receptor subunit. As to the kind of experiment: competition; closed-channel conformation; homologous competition with radiolabeled AF42.
Data set [3] shares this target. As to the kind of experiment: competition; unliganded closed-channel conformation; homologous competition with radiolabeled AF44.
For data set [4] the target is unchanged. Kind of data set: competition; open-channel conformation; homologous competition with radiolabeled AF44.

Results on two molecules are retold here after patent US20130289100 (The Research Foundation for the State University of New York, published 2013).

T1 sequence (P19491 other isoform, or with tags, fused parts or gaps): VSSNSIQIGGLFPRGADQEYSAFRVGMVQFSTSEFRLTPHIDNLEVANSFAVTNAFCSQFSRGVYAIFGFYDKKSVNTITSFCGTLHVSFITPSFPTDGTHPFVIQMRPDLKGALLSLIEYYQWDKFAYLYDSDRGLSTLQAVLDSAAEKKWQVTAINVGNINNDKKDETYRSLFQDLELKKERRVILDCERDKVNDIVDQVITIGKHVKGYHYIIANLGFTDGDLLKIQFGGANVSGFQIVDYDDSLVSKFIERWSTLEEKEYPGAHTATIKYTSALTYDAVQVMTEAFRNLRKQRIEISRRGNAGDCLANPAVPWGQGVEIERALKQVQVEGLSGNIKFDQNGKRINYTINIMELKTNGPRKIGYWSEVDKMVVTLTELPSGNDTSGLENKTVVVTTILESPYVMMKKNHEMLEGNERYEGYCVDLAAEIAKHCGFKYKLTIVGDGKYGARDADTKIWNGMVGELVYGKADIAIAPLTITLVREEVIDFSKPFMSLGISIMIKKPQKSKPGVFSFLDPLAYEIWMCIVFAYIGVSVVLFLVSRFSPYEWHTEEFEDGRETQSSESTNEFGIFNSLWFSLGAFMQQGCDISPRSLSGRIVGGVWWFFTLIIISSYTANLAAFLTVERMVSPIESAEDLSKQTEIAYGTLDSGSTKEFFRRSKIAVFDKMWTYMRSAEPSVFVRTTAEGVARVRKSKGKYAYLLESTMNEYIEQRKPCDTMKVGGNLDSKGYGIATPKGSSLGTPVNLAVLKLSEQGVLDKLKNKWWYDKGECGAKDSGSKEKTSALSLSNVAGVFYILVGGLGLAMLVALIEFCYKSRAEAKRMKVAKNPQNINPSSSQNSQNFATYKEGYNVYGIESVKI

As usually defined, the Kd is a measure of binding affinity in units of concentration. Higher therefore signals lower affinity. Take GGGAACGGUGCCAGUCCGAAACGGAUCGUUAGAGCAUCAGUA (ssRNA) [AF42]: the dissociation constant (Kd) was 44 nM in data set [1] and 57 nM in data set [2].

As to GGGAGAAUUCAACUGCCACGGAUAAUAGCCAAUACUACAACCGU (ssRNA) [AF44 (A22)], the Kd in data set [3] was found to be 44 nM; in data set [4], 48 nM.
